Experimental data taken from paper PMC12412097, “Structure and Nitrite Reductase Activity of the Di-iron Protein ScdA in Staphylococcus aureus” (Journal of the American Chemical Society, 2025).

Tests used:
[1] = molecular target: the molecule itself; test: SEC; Superdex 75 Increase 10/300 GL, 20 mM Tris, 150 mM NaCl, pH 7.6; no reducing agent (WT also with MV radicals); oligomer peak at 9.2 mL, dimer peak at 10.9 mL
[2] = molecular target: the molecule itself; test: crystal structure
[3] = molecular target: the molecule itself; test: SEC; as a1, protein treated with the reducing agent DTT

B1: cysteine-free (CF) ScdA variant (C30A/C31A/C191A), N-terminal His6 tag (enzyme)
chain: not shown
notes: also called CF variant; not shown: His6, N-terminal, kept
stoichiometry N [1]: 2

B2: ScdA S77E variant (wild-type cysteines) (enzyme)
chain: not shown
notes: also called S77E mutant; not shown: His6, N-terminal, kept
binding result [1]: binds

B3: CF ScdA S77C (enzyme)
chain: not shown
notes: not shown: His6, N-terminal, kept
stoichiometry N [1]: 2

B4: tag-free variant of CF ScdA (tagless ScdA) (enzyme)
chain: not shown
notes: also called CF ScdA (crystal); source: E. coli, purified (Q Sepharose, SEC)
stoichiometry N [2]: 2

B5: wild-type (WT) ScdA, S. aureus, N-terminal His6 tag (enzyme)
chain: not shown
notes: also called as-isolated WT; reduced WT; not shown: His6, N-terminal, kept
stoichiometry N [3]: 2
